Measurements: US20200277385A1

Experiments:
[1] = molecular target: human CD303 antigen expressed on cells (human) (UniProt Q8WTT0); assay: cell-based or functional assay
[2] = molecular target: human CD303 antigen expressed on cells (human) (UniProt Q8WTT0); assay: flow cytometry on CAL-1 cells (experiment with BIIB059)
[3] = molecular target: human CD303 antigen expressed on cells (human) (UniProt Q8WTT0); assay: flow cytometry on CAL-1 cells transfected with CD303 (about 40,000-50,000 CD303/cell)

Chain of human CD303 antigen expressed on cells (human) (Q8WTT0 whole entry): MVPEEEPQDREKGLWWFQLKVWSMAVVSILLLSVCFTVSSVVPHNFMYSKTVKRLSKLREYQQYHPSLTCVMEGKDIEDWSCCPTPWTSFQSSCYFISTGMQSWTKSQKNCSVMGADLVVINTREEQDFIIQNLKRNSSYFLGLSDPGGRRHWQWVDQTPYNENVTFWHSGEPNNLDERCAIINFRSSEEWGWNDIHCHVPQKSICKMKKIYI

ADCC Emax (% lysis), CAL-1 target cells [1]: 1.12 % lysis
Bmax (MFI) [2]: 11.8 MFI
EC50 [2]: 0.6 µg/mL
Bmax (MFI) [3]: 382 MFI
EC50 [3]: 0.784 µg/mL
B1: humanized antibody BIIB059 (antibody, INN chains, looked up, V domains shown)
VH: DVQLVESGGGLVKPGGSLRLSCAASGFTFSTYTMSWVRQAPGKGLEWVATISPGDSFGYYYPDSVQGRFTISRDNAKNSLYLQMNSLRAEDTAVYYCTRDIYYNYGAWFAYWGQGTLVTVSS
VL: DIQLTQSPSSLSASVGDRVTITCKASQSVDYDGDSYMNWYQQKPGKAPKLLIYAASTLESGVPSRFSGSGSGTDFTLTISSLQPEDFATYYCQQANEDPRTFGQGTKVEIK
